Data: patent US20110206701A1 (AbbVie / Abbott, published 2011)

Target: T1, CS1 (CD2-subset 1) (human, UniProt Q9NQ25 23-335)
T1 construct: whole, on cells; In the immunohistochemistry the protein stood in formalin-fixed, paraffin-embedded tissue sections; also called SLAMF7; CRACC
Experiment: flow cytometry on normal blood NK and NK/T cells, directly conjugated antibody

binding result: binds
B1: HuLuc63 (elotuzumab), humanized anti-CS1 antibody (antibody, V domains shown)
VH: EVQLVESGGGLVQPGGSLRLSCAASGFDFSRYWMSWVRQAPGKGLEWIGEINPDSSTINYAPSLKDKFIISRDNAKNSLYLQMNSLRAEDTAVYYCARPDGNYWYFDVWGQGTLVTVSS
VL: DIQMTQSPSSLSASVGDRVTITCKASQDVGIAVAWYQQKPGKVPKLLIYWASTRHTGVPDRFSGSGSGTDFTLTISSLQPEDVATYYCQQYSSYPYTFGQGTKVEIK
